Assay results taken from patent US9739779B2, “Methods of screening for Janus kinase 3 interacting compounds” (priority 2013, dated 2017).

Tests used:
P-Villin = biological target: T1, P-Villin (Homo sapiens, UniProt P09327); experiment: Multiplate ELISA binding of GST-Jak3 and truncated Jak3 fusion proteins to P-Villin
T1 construct: made in house; host or cells: E. coli TKX1 (pGEX2T vector)
T1 sequence (P09327 1-827): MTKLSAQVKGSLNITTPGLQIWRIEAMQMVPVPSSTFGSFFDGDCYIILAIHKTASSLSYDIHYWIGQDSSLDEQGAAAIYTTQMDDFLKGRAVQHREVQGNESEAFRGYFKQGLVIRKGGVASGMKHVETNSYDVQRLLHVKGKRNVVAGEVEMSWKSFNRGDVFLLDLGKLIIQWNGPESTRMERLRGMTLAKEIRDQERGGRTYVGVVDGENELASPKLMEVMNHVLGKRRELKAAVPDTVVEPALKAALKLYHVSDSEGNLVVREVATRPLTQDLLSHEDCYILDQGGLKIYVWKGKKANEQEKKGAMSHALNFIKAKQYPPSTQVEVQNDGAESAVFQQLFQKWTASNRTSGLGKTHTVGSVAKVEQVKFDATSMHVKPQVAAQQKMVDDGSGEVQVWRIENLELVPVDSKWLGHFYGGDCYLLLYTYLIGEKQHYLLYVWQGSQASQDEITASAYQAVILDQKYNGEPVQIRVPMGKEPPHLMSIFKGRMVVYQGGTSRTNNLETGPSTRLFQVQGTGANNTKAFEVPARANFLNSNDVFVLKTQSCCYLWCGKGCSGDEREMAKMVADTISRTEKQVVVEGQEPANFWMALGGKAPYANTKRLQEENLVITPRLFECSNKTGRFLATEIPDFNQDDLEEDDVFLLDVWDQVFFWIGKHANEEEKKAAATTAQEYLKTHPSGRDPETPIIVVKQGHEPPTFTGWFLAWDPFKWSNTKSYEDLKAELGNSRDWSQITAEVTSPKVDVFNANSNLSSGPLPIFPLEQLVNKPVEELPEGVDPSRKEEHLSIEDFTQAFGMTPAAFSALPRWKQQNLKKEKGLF
Experimental: Absorbance values for wells containing P-Villin contacted with GST alone were used as control, and data presented on the ordinate axis represent absorbance values after subtraction of control values.
(§1) To determine the ability of Jak3 to interact with natural compounds including biomolecules, binding studies were performed in a multiplate using the cytoskeletal protein, Villin, known in the art to be a substrate for P-Jak3. Multiplates pre-coated with P-Villin were contacted with increasing concentrations of GST-P-Jak3 fusion protein (test samples) or GST alone (control sample). Binding levels were measured using GST antibody as the primary binding partner, horse radish peroxidase conjugated antibody as the secondary binding partner and 3,3′,5,5′-tetramethylbenzidine as the colorimetric substrate. Raw absorbance data for the control samples were subtracted from the absorbance for the test samples to obtain the corrected absorbance values.
To determine whether the kinase domains of Jak3 are critical for Villin binding, recombinant GST-truncated-Jak3 fusion proteins shown in FIGS. 2C-2E were expressed in BL21 (for non-phosphorylated proteins) or TKX1 (for phosphorylated proteins) cells, and purified. Multiplates pre-coated with P-Villin were contacted with these GST-tagged recombinant truncated-Jak3 or with GST-tagged recombinant WT-Jak3, and binding measured as described supra.

[1] = biological target: T2, GST-P-Jak3 fusion protein (Mus musculus, UniProt Q62137); experiment: Multiplate ELISA binding of P-Villin to GST-P-Jak3
T2 construct: made in house; host or cells: E. coli TKX1 (pGEX-4T vector)
Experimental: GST is the reporter protein and the primary binding partner is a GST antibody.
as §1

T2 sequence (Q62137 with tags, fused parts or gaps): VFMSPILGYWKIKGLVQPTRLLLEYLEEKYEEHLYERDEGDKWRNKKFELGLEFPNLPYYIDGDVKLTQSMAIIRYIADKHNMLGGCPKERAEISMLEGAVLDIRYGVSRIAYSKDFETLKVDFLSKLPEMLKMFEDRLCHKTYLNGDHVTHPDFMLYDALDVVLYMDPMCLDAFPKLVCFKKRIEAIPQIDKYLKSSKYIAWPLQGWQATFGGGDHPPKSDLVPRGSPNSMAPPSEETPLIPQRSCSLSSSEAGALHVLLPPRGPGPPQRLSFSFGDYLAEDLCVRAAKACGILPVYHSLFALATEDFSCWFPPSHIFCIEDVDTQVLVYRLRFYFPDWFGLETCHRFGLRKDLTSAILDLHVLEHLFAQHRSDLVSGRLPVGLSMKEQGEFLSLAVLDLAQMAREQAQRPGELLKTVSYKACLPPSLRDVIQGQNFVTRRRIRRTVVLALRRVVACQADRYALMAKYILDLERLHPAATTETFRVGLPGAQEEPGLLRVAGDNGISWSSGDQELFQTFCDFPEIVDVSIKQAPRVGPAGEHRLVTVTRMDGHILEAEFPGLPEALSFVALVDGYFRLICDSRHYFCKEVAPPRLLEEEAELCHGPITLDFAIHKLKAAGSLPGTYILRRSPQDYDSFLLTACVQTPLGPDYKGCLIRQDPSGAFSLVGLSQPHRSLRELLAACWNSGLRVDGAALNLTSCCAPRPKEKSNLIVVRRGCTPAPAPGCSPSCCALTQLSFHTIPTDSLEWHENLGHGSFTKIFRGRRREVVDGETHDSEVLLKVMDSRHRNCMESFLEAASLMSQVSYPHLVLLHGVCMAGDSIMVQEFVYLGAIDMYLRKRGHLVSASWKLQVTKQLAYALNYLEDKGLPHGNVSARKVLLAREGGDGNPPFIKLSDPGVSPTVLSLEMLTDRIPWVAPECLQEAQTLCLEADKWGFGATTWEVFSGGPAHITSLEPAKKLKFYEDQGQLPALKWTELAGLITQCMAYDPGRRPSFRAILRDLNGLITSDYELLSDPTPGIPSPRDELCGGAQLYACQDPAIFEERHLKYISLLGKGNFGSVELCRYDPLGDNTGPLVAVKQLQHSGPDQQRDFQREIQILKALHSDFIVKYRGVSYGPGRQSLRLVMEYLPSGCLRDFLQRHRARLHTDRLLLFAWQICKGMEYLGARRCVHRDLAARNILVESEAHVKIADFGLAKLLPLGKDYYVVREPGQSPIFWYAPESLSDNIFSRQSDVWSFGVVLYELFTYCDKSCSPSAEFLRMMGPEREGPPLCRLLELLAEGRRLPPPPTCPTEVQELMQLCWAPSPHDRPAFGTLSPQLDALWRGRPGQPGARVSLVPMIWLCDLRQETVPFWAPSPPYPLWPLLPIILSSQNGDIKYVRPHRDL

Question: With “P-WT-Jak3: phosphorylated GST-WT-Jak3 fusion protein (SEQ ID NO: 11) expressed in TKX1” as the molecule, how does the Kd (P-Villin; plates pre-coated with P-Villin, read-out: dissociation constant (Kd)) read?
Answer: Its Kd is 23 nM.

Question: Which “level of binding to P-Villin” value (P-Villin; FIG. 8A, GST-alone control subtracted) does the source give for “WT-Jak3: non-phosphorylated GST-WT-Jak3 fusion protein (SEQ ID NO. 7) expressed in BL21” here?
Answer: Its value is “relatively lower level of binding”.

B1: P-Villin: recombinant phosphorylated cytoskeletal protein Villin expressed in E. coli TKX1 (protein)
chain: MTKLSAQVKGSLNITTPGLQIWRIEAMQMVPVPSSTFGSFFDGDCYIILAIHKTASSLSYDIHYWIGQDSSLDEQGAAAIYTTQMDDFLKGRAVQHREVQGNESEAFRGYFKQGLVIRKGGVASGMKHVETNSYDVQRLLHVKGKRNVVAGEVEMSWKSFNRGDVFLLDLGKLIIQWNGPESTRMERLRGMTLAKEIRDQERGGRTYVGVVDGENELASPKLMEVMNHVLGKRRELKAAVPDTVVEPALKAALKLYHVSDSEGNLVVREVATRPLTQDLLSHEDCYILDQGGLKIYVWKGKKANEQEKKGAMSHALNFIKAKQYPPSTQVEVQNDGAESAVFQQLFQKWTASNRTSGLGKTHTVGSVAKVEQVKFDATSMHVKPQVAAQQKMVDDGSGEVQVWRIENLELVPVDSKWLGHFYGGDCYLLLYTYLIGEKQHYLLYVWQGSQASQDEITASAYQAVILDQKYNGEPVQIRVPMGKEPPHLMSIFKGRMVVYQGGTSRTNNLETGPSTRLFQVQGTGANNTKAFEVPARANFLNSNDVFVLKTQSCCYLWCGKGCSGDEREMAKMVADTISRTEKQVVVEGQEPANFWMALGGKAPYANTKRLQEENLVITPRLFECSNKTGRFLATEIPDFNQDDLEEDDVFLLDVWDQVFFWIGKHANEEEKKAAATTAQEYLKTHPSGRDPETPIIVVKQGHEPPTFTGWFLAWDPFKWSNTKSYEDLKAELGNSRDWSQITAEVTSPKVDVFNANSNLSSGPLPIFPLEQLVNKPVEELPEGVDPSRKEEHLSIEDFTQAFGMTPAAFSALPRWKQQNLKKEKGLF
Question: Which Kd ([1]; plates pre-coated with P-Villin, P-Jak3 0-400 nM, GST control subtracted, read-out: dissociation constant (Kd)) does the source give for B1 here?
Answer: Its Kd is 23 nM.

Question: What about the “Hill coefficient (h)” value ([1]; rearranged Hill equation plot) of the same molecule?
Answer: The value was 3.7.
